Measurements reported in patent US6762290, “High affinity vascular endothelial growth factor (VEGF) receptor nucleic acid ligands and inhibitors” (Gilead Sciences, Inc.).
Substitutions are numbered along the chain they refer to.

B1: K10 (ssRNA)
RNA: GGGAGGACGAUGCGGUUGAUCGAGGUUCUAAGGCCUAUUUCCUGACUUUCUCCCCCAGACGACUCGCCCGA
modifications: 2'-F pyrimidines
B2: K11 (ssRNA)
RNA: B1 RNA with G32A
modifications: 2'-F pyrimidines
B3: K4 (ssRNA)
RNA: GGGAGGACGAUGCGGAGGUGCUCCUUUGGAACUUCGUAUUUGUCUGCUCCUGGUCAGACGACUCGCCCGA
modifications: 2'-F pyrimidines
B4: K12 (ssRNA)
RNA: GGGAGGACGAUGCGGAAACGGAAGAAUUGGAGACCGACGUCGACCUCUUGGCCCCAGACGACUCGCCCGA
modifications: 2'-F pyrimidines
B5: K7 (ssRNA)
RNA: GGGAGGACGAUGCGGACGAUAACACAGGGCCUGCUUGGAUCACACUGAUUGCGCCCAGACGACUCGCCCGA
modifications: 2'-F pyrimidines
B6: K21 (ssRNA)
RNA: GGGAGGACGAUGCGGAUCAUACCGAAGAGACACGGGGCCACCAUAUCCUCACCCCCAGACGACUCGCCCGA
modifications: 2'-F pyrimidines
B7: K1 (ssRNA)
RNA: GGGAGGACGAUGCGGGGCCUGUUUGGAUCAUACCGAUCGUCAAUCCAAGAGUGGUCAGACGACUCGCCCGA
modifications: 2'-F pyrimidines
B8: K2 (ssRNA)
RNA: B7 RNA with A47U, G49A
modifications: 2'-F pyrimidines
B9: K23 (ssRNA)
RNA: GGGAGGACGAUGCGGACACACACAUCAUAAACAUUGUCCGUUGACCAGACGACUCGCCCGA
modifications: 2'-F pyrimidines
B10: K5 (ssRNA)
RNA: GGGAGGACGAUGCGGCAUGGGGCCUGACUGGAUCAUACCACCGCUUCCUCUGGUCAGACGACUCGCCCGA
modifications: 2'-F pyrimidines
B11: K3 (ssRNA)
RNA: B10 RNA with C47U
modifications: 2'-F pyrimidines
B12: K13 (ssRNA)
RNA: GGGAGGACGAUGCGGAACCAAUUAAGUCUGGCAAAUCUCUCUGUGCAGACGACUCGCCCGA
modifications: 2'-F pyrimidines

What was measured:
[1] = molecular target: T1, VEGFR2 (KDR) extracellular domain/Fc (Homo sapiens, UniProt P35968 P35968:20-764); experiment: filter; details: tags: C-terminal human IgG1 Fc fusion with Factor Xa site and His6; R&D Systems; NSO mouse myeloma cells; chain copies: 2 (stated, disulfide-linked homodimer)
T1 sequence (P35968 20-764, one chain of several): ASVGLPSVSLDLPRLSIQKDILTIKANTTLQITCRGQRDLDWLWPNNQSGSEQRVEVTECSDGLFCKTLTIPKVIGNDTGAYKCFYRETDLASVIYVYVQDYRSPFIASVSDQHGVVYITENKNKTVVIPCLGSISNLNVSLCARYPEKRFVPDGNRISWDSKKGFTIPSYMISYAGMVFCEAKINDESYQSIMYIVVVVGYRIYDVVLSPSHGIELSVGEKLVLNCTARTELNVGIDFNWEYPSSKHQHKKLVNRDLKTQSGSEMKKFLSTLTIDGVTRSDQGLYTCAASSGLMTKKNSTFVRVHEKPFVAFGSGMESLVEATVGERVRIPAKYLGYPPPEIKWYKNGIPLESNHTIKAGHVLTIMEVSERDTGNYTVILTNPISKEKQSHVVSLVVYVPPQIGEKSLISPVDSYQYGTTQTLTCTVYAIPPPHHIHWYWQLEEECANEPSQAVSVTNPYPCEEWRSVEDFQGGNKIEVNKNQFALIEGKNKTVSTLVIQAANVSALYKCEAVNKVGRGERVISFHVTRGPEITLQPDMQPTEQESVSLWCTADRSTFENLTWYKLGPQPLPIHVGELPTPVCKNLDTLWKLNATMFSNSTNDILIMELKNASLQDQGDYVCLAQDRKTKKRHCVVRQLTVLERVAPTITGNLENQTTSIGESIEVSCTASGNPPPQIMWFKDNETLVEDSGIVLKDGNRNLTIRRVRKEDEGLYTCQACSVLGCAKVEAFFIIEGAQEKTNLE

[2] = molecular target: T2, VEGF receptors on HUVEC (VEGFR2/KDR) (Homo sapiens, UniProt P35968 P35968:20-1356); experiment: competition; inhibition of 125I-VEGF-165 binding to HUVEC, DPBS with Ca, Mg, room temperature
T2 sequence (P35968 20-1356, one chain of several): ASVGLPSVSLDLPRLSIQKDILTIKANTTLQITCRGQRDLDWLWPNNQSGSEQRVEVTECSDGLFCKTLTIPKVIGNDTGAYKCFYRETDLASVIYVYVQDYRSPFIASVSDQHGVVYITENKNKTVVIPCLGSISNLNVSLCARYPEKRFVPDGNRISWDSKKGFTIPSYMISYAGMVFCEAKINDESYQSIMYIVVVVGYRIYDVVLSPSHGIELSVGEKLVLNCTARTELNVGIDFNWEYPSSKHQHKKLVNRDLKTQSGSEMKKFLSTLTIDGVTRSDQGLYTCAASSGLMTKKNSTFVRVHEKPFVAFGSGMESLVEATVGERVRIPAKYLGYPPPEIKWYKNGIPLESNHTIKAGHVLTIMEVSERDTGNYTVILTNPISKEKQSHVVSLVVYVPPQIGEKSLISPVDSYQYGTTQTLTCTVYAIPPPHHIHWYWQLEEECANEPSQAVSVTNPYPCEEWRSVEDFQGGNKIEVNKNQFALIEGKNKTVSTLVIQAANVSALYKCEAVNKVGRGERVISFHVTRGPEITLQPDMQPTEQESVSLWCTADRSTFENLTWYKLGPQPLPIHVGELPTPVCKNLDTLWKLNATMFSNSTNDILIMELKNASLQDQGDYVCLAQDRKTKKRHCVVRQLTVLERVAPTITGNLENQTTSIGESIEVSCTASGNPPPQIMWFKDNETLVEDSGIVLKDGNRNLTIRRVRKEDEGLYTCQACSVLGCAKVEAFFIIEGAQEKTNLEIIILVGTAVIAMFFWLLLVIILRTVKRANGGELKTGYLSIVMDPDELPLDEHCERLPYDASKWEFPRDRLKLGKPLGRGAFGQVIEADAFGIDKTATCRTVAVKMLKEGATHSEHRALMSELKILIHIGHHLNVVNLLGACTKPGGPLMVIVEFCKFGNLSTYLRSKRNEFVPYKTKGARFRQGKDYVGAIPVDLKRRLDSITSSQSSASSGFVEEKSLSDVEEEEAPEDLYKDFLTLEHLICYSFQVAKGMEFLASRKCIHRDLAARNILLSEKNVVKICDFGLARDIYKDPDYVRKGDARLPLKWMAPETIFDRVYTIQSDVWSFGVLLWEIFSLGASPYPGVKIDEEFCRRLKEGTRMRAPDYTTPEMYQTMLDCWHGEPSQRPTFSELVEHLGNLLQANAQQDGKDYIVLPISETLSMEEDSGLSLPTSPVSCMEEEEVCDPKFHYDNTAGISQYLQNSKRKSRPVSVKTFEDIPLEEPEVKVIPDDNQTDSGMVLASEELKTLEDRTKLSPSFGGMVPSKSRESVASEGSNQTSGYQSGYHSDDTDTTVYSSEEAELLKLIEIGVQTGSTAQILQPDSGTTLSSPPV
Protocol: (§1) We next examined whether a group of representative aptamers was able to inhibit the binding of [125]I-VEGF-165 to VEGF receptors expressed on HUVECs. Cells were seeded in 96-well plates at a density of about 10,000 cells/well and maintained until confluent. Culture medium was then replaced with growth factor deficient medium (MEM, 5% heat inactivated fetal bovine serum, 1 µg/ml heparin) for 3–4 hours. Cells were then washed with Dulbecco's phosphate-buffered saline (DPBS) (containing 1 mM CaCl_2, 1 mM MgCl_2 and 0.1% bovine serum albumin) followed by the addition of 100 µl/well of DPBS. [125]I-VEGF-165 ([…]) in the presence of varying amounts of aptamers (0.001–1000 nM) was then added to cells for 2 hours at room temperature. Unbound [125]I-VEGF-165 was then removed by washing with DPBS and the cells were lysed with Triton X-100. Lysates were harvested onto glass fiber filters plates and processed for scintillation counting. Aptamers K1, K10, K17 and K21 were tested. […] Thus, among the VEGFR2 aptamers tested, both receptor binding antagonists and non-antagonists have been identified.

[3] = molecular target: T1, VEGFR2 (KDR) extracellular domain/Fc; experiment: filter; circularly permuted family member; details: tags: C-terminal human IgG1 Fc fusion with Factor Xa site and His6; R&D Systems; NSO mouse myeloma cells; chain copies: 2 (stated, disulfide-linked homodimer)
[4] = molecular target: T2, VEGF receptors on HUVEC (VEGFR2/KDR); experiment: competition; inhibition of 125I-VEGF-165 binding to HUVEC
Protocol: as §1

[5] = molecular target: T1, VEGFR2 (KDR) extracellular domain/Fc; experiment: filter; 30N clone; details: tags: C-terminal human IgG1 Fc fusion with Factor Xa site and His6; R&D Systems; NSO mouse myeloma cells; chain copies: 2 (stated, disulfide-linked homodimer)
[6] = molecular target: T1, VEGFR2 (KDR) extracellular domain/Fc; experiment: filter; Table 2 prints CCACGGC where listing has ccaccgc; details: tags: C-terminal human IgG1 Fc fusion with Factor Xa site and His6; R&D Systems; NSO mouse myeloma cells; chain copies: 2 (stated, disulfide-linked homodimer)

| Binder | Kd [1] [nM] | also measured |
| --- | --- | --- |
| B1 | 0.47 | IC50 [2]: 1 nM |
| B2 | 0.61 |  |
| B3 | 0.28 |  |
| B4 | 15.4 |  |
| B5 | 0.46 |  |
| B6 |  | Kd [3]: 0.26 nM; IC50 [4]: 79 nM |
| B7 | 0.07 |  |
| B8 | 0.27 |  |
| B9 |  | Kd [5]: 2.2 nM |
| B10 | 0.44 |  |
| B11 |  | Kd [6]: 0.51 nM |
| B12 |  | Kd [5]: 0.75 nM |
